Data from patent publication US20150183880A1.

Legend:
[1] = target: IGF-1R and EGP-1 together on cancer cell lines (MCF-7, DU-145, ME-180); assay: flow cytometry (FACScan), MCF-7 cells; structural control
[2] = target: recombinant human IGF-1R (R&D Systems, Catalog #391-GR), extracellular domain (human) (UniProt P08069); assay: rhIGF-1R-coated beads; competitor unlabeled R1
[3] = target: recombinant human IGF-1R (R&D Systems, Catalog #391-GR), extracellular domain (human) (UniProt P08069); assay: rhIGF-1R-coated beads; competitor unlabeled 24-31
[4] = target: recombinant human IGF-1R (R&D Systems, Catalog #391-GR), extracellular domain (human) (UniProt P08069); assay: rhIGF-1R-coated beads; competitor unlabeled MAB391
[5] = target: recombinant human IGF-1R (R&D Systems, Catalog #391-GR), extracellular domain (human) (UniProt P08069); assay: rhIGF-1R-coated beads; competitor unlabeled 24-60
[6] = target: recombinant human IGF-1R (R&D Systems, Catalog #391-GR), extracellular domain (human) (UniProt P08069); assay: rhIGF-1R-coated beads; competitor unlabeled cR1
[7] = target: recombinant human IGF-1R (R&D Systems, Catalog #391-GR), extracellular domain (human) (UniProt P08069); assay: rhIGF-1R-coated beads; competitor unlabeled 17-69
[8] = target: recombinant human IGF-1R (R&D Systems, Catalog #391-GR), extracellular domain (human) (UniProt P08069); assay: rhIGF-1R-coated beads; competitor unlabeled αIR-3
[9] = target: recombinant human IGF-1R (R&D Systems, Catalog #391-GR), extracellular domain (human) (UniProt P08069); assay: rhIGF-1R-coated beads; competitor unlabeled 3B7
[10] = target: recombinant human IGF-1R (R&D Systems, Catalog #391-GR), extracellular domain (human) (UniProt P08069); assay: rhIGF-1R-coated beads; competitor unlabeled hR1
[11] = target: recombinant human IGF-1R (R&D Systems, Catalog #391-GR), extracellular domain (human) (UniProt P08069); assay: rhIGF-1R-coated beads; competitor unlabeled 24-57
[12] = target: recombinant human IGF-1R (R&D Systems, Catalog #391-GR), extracellular domain (human) (UniProt P08069); assay: rhIGF-1R-coated beads; competitor unlabeled 2C8
[13] = target: recombinant human IGF-1R (R&D Systems, Catalog #391-GR), extracellular domain (human) (UniProt P08069); assay: rhIGF-1R-coated beads; competitor unlabeled 1H7
[14] = target: recombinant human IGF-1R (R&D Systems, Catalog #391-GR), extracellular domain (human) (UniProt P08069); assay: rhIGF-1R-coated beads; competitor unlabeled 1-2
[15] = target: EGP-1 expressed on cancer cell lines (MCF-7, DU-145, ME-180) (UniProt P09758); assay: flow cytometry (FACScan), DU145 cells
[16] = target: EGP-1 expressed on cancer cell lines (MCF-7, DU-145, ME-180) (UniProt P09758); assay: flow cytometry (FACScan), ME-180 cells
[17] = target: EGP-1 expressed on cancer cell lines (MCF-7, DU-145, ME-180) (UniProt P09758); assay: flow cytometry (FACScan), MCF-7 cells
[18] = target: IGF-1R expressed on cancer cell lines (MCF-7, MCF-7L, CaPan1, DU-145, ME-180, Hep G2, HT-29, LNCaP) (human) (UniProt P08069); assay: 125I-IGF-1 binding to MCF-7L cells with antibody at 1000 ng/mL
[19] = target: IGF-1R expressed on cancer cell lines (MCF-7, MCF-7L, CaPan1, DU-145, ME-180, Hep G2, HT-29, LNCaP) (human) (UniProt P08069); assay: 125I-IGF-1 binding to MCF-7L cells with antibody at 10 ng/mL
[20] = target: IGF-1R expressed on cancer cell lines (MCF-7, MCF-7L, CaPan1, DU-145, ME-180, Hep G2, HT-29, LNCaP) (human) (UniProt P08069); assay: 125I-IGF-1 binding to MCF-7L cells with antibody at 100 ng/mL
[21] = target: IGF-1R expressed on cancer cell lines (MCF-7, MCF-7L, CaPan1, DU-145, ME-180, Hep G2, HT-29, LNCaP) (human) (UniProt P08069); assay: 125I-IGF-1 binding to MCF-7L cells with antibody at 0 ng/mL (baseline)
[22] = target: IGF-1R and EGP-1 together on cancer cell lines (MCF-7, DU-145, ME-180); assay: flow cytometry (FACScan), MCF-7 cells; control

Sequence of EGP-1 expressed on cancer cell lines (MCF-7, DU-145, ME-180) (P09758 27-323 limits assumed): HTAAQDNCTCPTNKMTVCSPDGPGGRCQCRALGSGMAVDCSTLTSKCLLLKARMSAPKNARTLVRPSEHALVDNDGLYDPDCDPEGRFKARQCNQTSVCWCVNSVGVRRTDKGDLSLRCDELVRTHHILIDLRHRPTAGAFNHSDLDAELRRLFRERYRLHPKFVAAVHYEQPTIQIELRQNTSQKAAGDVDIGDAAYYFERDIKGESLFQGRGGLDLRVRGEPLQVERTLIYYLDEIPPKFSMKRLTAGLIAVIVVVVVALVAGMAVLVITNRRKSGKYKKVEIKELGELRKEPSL

% binding [2]	% binding [3]	% binding [4]	% binding [5]	% binding [6]	% binding [7]	% binding [8]	% binding [9]	% binding [10]	% binding [11]	% binding [12]	% binding [13]	% binding [14]	Substance	also measured
–	–	–	–	–	–	–	–	–	–	–	–	–	22-20 (bispecific hexavalent DNL construct: hLL2 IgG-AD2 with four hA20 Fab-DDD2) (bispecific antibody)	% Positive [1]: 3.1%; MFI [1]: 2.11
0%	18%	0%	0%	0%	82%	21%	79%	0%	88%	88%	100%	100%	24-60 (commercial anti-IGF-1R mAb) (antibody)	–
–	–	–	–	–	–	–	–	–	–	–	–	–	Hex-hRS7 (monospecific hexavalent DNL construct of hRS7, anti-EGP-1)	% Positive [15]: 93.7%; MFI [15]: 17; % Positive [16]: 100%; MFI [16]: 59.6; % Positive [17]: 99.9%; MFI [17]: 35.7
40%	–	0%	–	–	–	–	–	–	–	–	–	–	MAB391 (commercial mouse anti-IGF-1R monoclonal antibody, R&D clone 33255.111)	% binding of 125I-IGF-1 [18]: 38%; % binding of 125I-IGF-1 [19]: 95%; % binding of 125I-IGF-1 [20]: 54%; % binding of 125I-IGF-1 [21]: 100%
–	–	–	–	–	–	–	–	–	–	–	–	–	human IgG (control) (antibody)	% Positive [22]: 2.34%; MFI [22]: 1.84
86%	52%	0%	0%	97%	89%	0%	76%	107%	87%	97%	115%	95%	αIR-3 (commercial anti-IGF-1R mAb) (antibody)	–
